Target: Recombinant human BMP10 growth factor (GF)-domain (R&D Systems) (UniProt O95393)
Test: SPR (Biacore)
Settings: BMP10 immobilised on a CM5 Biacore chip; parent: 1.35E+05 M-1s-1

Chain of Recombinant human BMP10 growth factor (GF)-domain (R&D Systems) (O95393 317-424): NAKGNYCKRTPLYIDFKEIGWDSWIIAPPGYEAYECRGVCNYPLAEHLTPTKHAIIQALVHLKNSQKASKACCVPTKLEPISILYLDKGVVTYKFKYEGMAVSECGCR

kon: 49600 M⁻¹ s⁻¹
Substance: BMPRII extracellular domain (ECD), wild type (from UniProt Q13873-1) ΔGDP (del of Gly, Asp and Pro in the A-loop)
